# According to patent US20220096653A1, “CONJUGATE COMPRISING LIGAND AND CEACAM5 ANTIBODY FAB FRAGMENT” (ASTELLAS PHARMA INC., priority 2019, published 2022):
# T1: CEACAM5 (R&D Systems, 4128-CM-050) (human, UniProt P06731 35-685)
# T1 construct: Immobilised on the ELISA plate; also called human CEACAM5
# T1 sequence (looked up): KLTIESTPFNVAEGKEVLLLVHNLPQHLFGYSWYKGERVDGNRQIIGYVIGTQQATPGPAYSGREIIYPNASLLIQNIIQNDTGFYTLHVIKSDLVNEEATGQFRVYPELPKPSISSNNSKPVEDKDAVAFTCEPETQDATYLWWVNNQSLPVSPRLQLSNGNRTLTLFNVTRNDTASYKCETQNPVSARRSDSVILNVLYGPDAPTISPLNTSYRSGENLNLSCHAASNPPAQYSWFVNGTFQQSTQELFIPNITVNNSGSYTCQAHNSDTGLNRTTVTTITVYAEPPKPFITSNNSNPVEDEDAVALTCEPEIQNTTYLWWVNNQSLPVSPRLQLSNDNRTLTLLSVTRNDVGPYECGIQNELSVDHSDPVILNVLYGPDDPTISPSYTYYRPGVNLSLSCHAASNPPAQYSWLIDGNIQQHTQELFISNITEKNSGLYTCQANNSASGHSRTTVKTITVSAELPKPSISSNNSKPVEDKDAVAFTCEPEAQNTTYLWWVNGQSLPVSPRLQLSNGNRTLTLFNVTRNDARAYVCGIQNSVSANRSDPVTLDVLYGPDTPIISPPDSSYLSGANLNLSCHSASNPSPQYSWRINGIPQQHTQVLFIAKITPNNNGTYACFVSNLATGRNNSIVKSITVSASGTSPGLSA
# Target: T1, CEACAM5 (R&D Systems, 4128-CM-050)
# Experiment: ELISA on immobilised CEACAM5, 4-parameter fit, duplicate
# Procedure: Each anti-human CEACAM5 antibody Fab fragment conjugate prepared in Example 2 was subjected to ELISA to evaluate the binding activity thereof to CEACAM5. In the present test, a phosphate buffer (Nacalai Tesque Inc., 0.1 mol/L-Phosphate Buffer Solution (pH 7.2)) prepared to 10 mM by diluting 10-fold with distilled water was used as a solvent for an antigen immobilization liquid, and 20×PBS/Tween 20 Buffer (Thermo Fisher Scientific Inc., 28352) diluted 20-fold with distilled water was used as a wash liquid. In addition, for bovine serum albumin (BSA) used in the present test, 30% Bovine Serum Albumin solution (Sigma-Aldrich, Inc., A9576-50ML) was added in an appropriate proportion for use. CEACAM5 (R&D Systems, 4128-CM-050) was diluted with a 10 mM phosphate buffer (pH 7.2) to 0.1 μg/mL, and added to a Nunc MaxiSorp White 384 plate (Nunc, 4603272) at 30 μL per well, and the plate was incubated overnight at 4° C. for immobilization. The CEACAM5 immobilization liquid was removed by reverse centrifugation, and then blocking was carried out by adding a PBS/Tween 20 buffer containing 5.0% BSA. Thereafter, the blocking solution was removed by reverse centrifugation, a solution of each CEACAM5 antibody Fab² fragment conjugate described above or a Fab² fragment having no labeling portion (PB009-01) as a control at about 10000 ng/mL was diluted in 14 steps by 3-fold dilution using a PBS/Tween 20 buffer containing 1.0% BSA, and 30 μL was added per well and incubated at room temperature for 60 minutes. The plate was washed 3 times with a PBS/Tween 20 buffer, and Horseradish Peroxidase (HRP)-labeled goat anti-human IgG (H+L chain) antibody (MBL Life Sciences, 206) diluted 1000-fold using a PBS/Tween 20 buffer containing 5.0% BSA was added at 30 μL per well and incubated at room temperature for 30 minutes. The plate was washed 3 times with a PBS/Tween 20 buffer, and ECL Prime Western Blotting DETECTION Reagent (GE Healthcare, RPN2232) as a substrate was added at 30 μL per well. The substrate was incubated at room temperature for 15 minutes, and then a signal value thereof was measured using an Envision counter (PerkinElmer, Inc.).
# The test for each antibody was carried out in duplicate, and an EC₅₀ value was calculated using a 4-parameter logistic curve model.
row,Binder,EC50
1,"(Y-S1-X)p-Fab^2 with Y Gd/DOTA, S1 -NH-CH2-(1,3-Ph)-C(═O)-, X -Gly-Lys*-Z2(#S)- (Fab, V domains shown, labeling may sit on this chain; sites not stated; labeling portion (MW 1059) on amino groups of the Fab, sites and chain not stated; 1-2 per Fab by MS, also called Ex-No 6; conjugate 6) VH: EVQLVESGGGLVQPGGSLRLSCAASGFNIRDTYMHWVRQAPGKGLEWVARIDPANGNSRYVPKFQGRFTISADTSRNTAYLQMNSLRAEDTAVYYCAPFGYYVSDYAMAYWGQGTLVTVSS VL: DIQLTQSPSSLSASVGDRVTITCRAGESVDIFGVGFLHWYQQKPGKAPKLLIYRASNLESGIPSRFSGSGSRTDFTLTISSLQPEDFATYYCQQTNEDPYTFGQGTKVEIKR",0.14 nM
2,"(Y-S1-X)p-Fab^2 with Y Gd/DOTA, S1 - (bond), X -Gly-Tyr*-CH2-C(═O)-NH-(CH2)2-Z1(#S)- (Fab, V domains shown, labeling may sit on this chain; sites not stated; labeling portion (MW 1061) on amino groups of the Fab, sites and chain not stated; 1-3 per Fab by MS, also called Ex-No 7; conjugate 7) VH: EVQLVESGGGLVQPGGSLRLSCAASGFNIRDTYMHWVRQAPGKGLEWVARIDPANGNSRYVPKFQGRFTISADTSRNTAYLQMNSLRAEDTAVYYCAPFGYYVSDYAMAYWGQGTLVTVSS VL: DIQLTQSPSSLSASVGDRVTITCRAGESVDIFGVGFLHWYQQKPGKAPKLLIYRASNLESGIPSRFSGSGSRTDFTLTISSLQPEDFATYYCQQTNEDPYTFGQGTKVEIKR",0.17 nM
3,"(Y-S1-X)p-Fab^2 with Y Gd/DOTA, S1 - (bond), X -Met-Ile-NH-(CH2)2-Z1(#S)- (Fab, V domains shown, labeling may sit on this chain; sites not stated; labeling portion (MW 1027) on amino groups of the Fab, sites and chain not stated; 1-2 per Fab by MS, also called Ex-No 8; conjugate 8) VH: EVQLVESGGGLVQPGGSLRLSCAASGFNIRDTYMHWVRQAPGKGLEWVARIDPANGNSRYVPKFQGRFTISADTSRNTAYLQMNSLRAEDTAVYYCAPFGYYVSDYAMAYWGQGTLVTVSS VL: DIQLTQSPSSLSASVGDRVTITCRAGESVDIFGVGFLHWYQQKPGKAPKLLIYRASNLESGIPSRFSGSGSRTDFTLTISSLQPEDFATYYCQQTNEDPYTFGQGTKVEIKR",0.11 nM
4,"(Y-S1-X)p-Fab^2 with Y Gd/DOTA, S1 -NH-CH2-(1,3-Ph)-C(═O)-, X -Gly-Lys*-Z2(#N)- (Fab, V domains shown, labeling may sit on this chain; sites not stated; labeling portion (MW 958) on amino groups of the Fab, sites and chain not stated; 1-3 per Fab by MS, also called Ex-No 9; conjugate 9) VH: EVQLVESGGGLVQPGGSLRLSCAASGFNIRDTYMHWVRQAPGKGLEWVARIDPANGNSRYVPKFQGRFTISADTSRNTAYLQMNSLRAEDTAVYYCAPFGYYVSDYAMAYWGQGTLVTVSS VL: DIQLTQSPSSLSASVGDRVTITCRAGESVDIFGVGFLHWYQQKPGKAPKLLIYRASNLESGIPSRFSGSGSRTDFTLTISSLQPEDFATYYCQQTNEDPYTFGQGTKVEIKR",0.1 nM
5,"(Y-S1-X)p-Fab^2 with Y Gd/DOTA, S1 - (bond), X -Met-Ile-Lys*-Z2(#N)- (Fab, V domains shown, labeling may sit on this chain; sites not stated; labeling portion (MW 1012) on amino groups of the Fab, sites and chain not stated; 1-2 per Fab by MS, also called Ex-No 10; conjugate 10) VH: EVQLVESGGGLVQPGGSLRLSCAASGFNIRDTYMHWVRQAPGKGLEWVARIDPANGNSRYVPKFQGRFTISADTSRNTAYLQMNSLRAEDTAVYYCAPFGYYVSDYAMAYWGQGTLVTVSS VL: DIQLTQSPSSLSASVGDRVTITCRAGESVDIFGVGFLHWYQQKPGKAPKLLIYRASNLESGIPSRFSGSGSRTDFTLTISSLQPEDFATYYCQQTNEDPYTFGQGTKVEIKR",0.11 nM
6,"[Gd/DOTA-NH-CH2-(1,3-Ph)-C(═O)-Asp-Gly-Lys*-Z2(#N)]p-Fab^2 (Fab, V domains shown, labeling may sit on this chain; sites not stated; labeling portion (MW 1073) on amino groups of the Fab, sites and chain not stated; 1-3 per Fab by MS, also called Ex-No 11; Conjugate No. 11) VH: EVQLVESGGGLVQPGGSLRLSCAASGFNIRDTYMHWVRQAPGKGLEWVARIDPANGNSRYVPKFQGRFTISADTSRNTAYLQMNSLRAEDTAVYYCAPFGYYVSDYAMAYWGQGTLVTVSS VL: DIQLTQSPSSLSASVGDRVTITCRAGESVDIFGVGFLHWYQQKPGKAPKLLIYRASNLESGIPSRFSGSGSRTDFTLTISSLQPEDFATYYCQQTNEDPYTFGQGTKVEIKR",0.14 nM
7,"[Gd/4arm-DOTA-CH2-(1,4-Ph)-NH-C(═S)-Gly-Phe-Lys*-Z2(#N)]p-Fab^2 (Fab, V domains shown, labeling may sit on this chain; sites not stated; labeling portion (MW 1136) on amino groups of the Fab, sites and chain not stated; 1-3 per Fab by MS, also called Ex-No 12; Conjugate No. 12) VH: EVQLVESGGGLVQPGGSLRLSCAASGFNIRDTYMHWVRQAPGKGLEWVARIDPANGNSRYVPKFQGRFTISADTSRNTAYLQMNSLRAEDTAVYYCAPFGYYVSDYAMAYWGQGTLVTVSS VL: DIQLTQSPSSLSASVGDRVTITCRAGESVDIFGVGFLHWYQQKPGKAPKLLIYRASNLESGIPSRFSGSGSRTDFTLTISSLQPEDFATYYCQQTNEDPYTFGQGTKVEIKR",0.11 nM
